Legend:
[1] = target: SARS-CoV-2 spike receptor binding domain K417T (SARS-CoV-2) (UniProt P0DTC2); assay: BLI, RBD on AR2G biosensor, mAb as analyte
[2] = target: spike protein of SARS-CoV-2 strain B.1.351 (SARS-CoV-2) (UniProt P0DTC2); assay: cell-based or functional assay
[3] = target: SARS-CoV-2 receptor binding domain with N501Y (SARS-CoV-2) (UniProt P0DTC2); assay: BLI, RBD immobilised on AR2G biosensor, 1:1 fit
[4] = target: SARS-CoV-2 spike protein on authentic virus, strain B.1.1.7 (SARS-CoV-2) (UniProt P0DTC2); assay: cell-based or functional assay
[5] = target: SARS-CoV-2 spike protein on authentic virus, strain SARS-CoV-2/human/AUS/VIC01/2020 (Victoria) (SARS-CoV-2) (UniProt P0DTC2); assay: cell-based or functional assay

Substance AZD1061 (antibody) has a Kd [1] of 8 nM and an IC50 (FRNT, live virus neutralisation) [2] of 0.014 µg/mL.
With “AZD1061 as tested by BLI (Fab by the footnote of Table 12)” the Kd [3] was 1.41 nM.
In the case of “AZD7442 (a combination of AZD1061 and AZD8895)”, the B.1.1.7/Victoria Ratio of IC50 [4] is reported as 0.77, the IC50 (ug/ml), FRNT [4] is reported as 0.007 µg/mL and the IC50 (ug/ml), FRNT [5] is reported as 0.009 µg/mL.
Work on AZD8895 (antibody) yielded an IC50 (FRNT, live virus neutralisation) [2] of 0.046 µg/mL.
With “AZD8895 as tested by BLI (Fab by the footnote of Table 12)” the Kd [3] was 2.44 nM.
REGN10933 (antibody) showed an IC50 (FRNT, live virus neutralisation) [2] of 3.28 µg/mL.
“REGN10933 as tested by BLI (Fab by the footnote of Table 12)” showed a Kd [3] of 2.75 nM.
With REGN10987 (antibody) the IC50 (FRNT, live virus neutralisation) [2] was 0.007 µg/mL.
For “REGN10987 as tested by BLI (Fab by the footnote of Table 12)”, the Kd [3] was 3.09 nM.

Source: patent US20240043507A1
